The values below come from paper PMC3093450 (Nature, 2011).

B5: GST-Sec23p (natural protein, yeast)
chain: DFETNEDINGVRFTWNVFPSTRSDANSNVVPVGCLYTPLKEYDELNVAPYNPVVCSGPHCKSILNPYCVIDPRNSSWSCPICNSRNHLPPQYTNLSQENMPLELQSTTIEYITNKPVTVPPIFFFVVDLTSETENLDSLKESIITSLSLLPPNALIGLITYGNVVQLHDLSSETIDRCNVFRGDREYQLEALTEMLTGQKPTGPGGAASHLPNAMNKVTPFSLNRFFLPLEQVEFKLNQLLENLSPDQWSVPAGHRPLRATGSALNIASLLLQGCYKNIPARIILFASGPGTVAPGLIVNSELKDPLRSHHDIDSDHAQHYKKACKFYNQIAQRVAANGHTVDIFAGCYDQIGMSEMKQLTDSTGGVLLLTDAFSTAIFKQSYLRLFAKDEEGYLKMAFNGNMAVKTSKDLKVQGLIGHASAVKKTDANNISESEIGIGATSTWKMASLSPYHSYAIFFEIANTAANSNPMMSAPGSADRPHLAYTQFITTYQHSSGTNRIRVTTVANQLLPFGTPAIAASFDQEAAAVLMARIAVHKAETDDGADVIRWLDRTLIKLCQKYADYNKDDPQSFRLAPNFSLYPQFTYYLRRSQFLSVFNNSPDETAFYRHIFTREDTTNSLIMIQPTLTSFSMEDDPQPVLLDSISVKPNTILLLDTFFFILIYHGEQIAQWRKAGYQDDPQYADFKALLEEPKLEAAELLVDRFPLPRFIDTEAGGSQARFLLSKLNPSDNYQDMARGGSTIVLTDDVSLQNFMTHLQQVAVSGQA

The target of the assay “GST-Sec23p” is B5. The experiment in a line: pull-down.
Another assay has as its target T1, His6-Sec24p (yeast, UniProt P40482 1-926).
T1 sequence (looked up): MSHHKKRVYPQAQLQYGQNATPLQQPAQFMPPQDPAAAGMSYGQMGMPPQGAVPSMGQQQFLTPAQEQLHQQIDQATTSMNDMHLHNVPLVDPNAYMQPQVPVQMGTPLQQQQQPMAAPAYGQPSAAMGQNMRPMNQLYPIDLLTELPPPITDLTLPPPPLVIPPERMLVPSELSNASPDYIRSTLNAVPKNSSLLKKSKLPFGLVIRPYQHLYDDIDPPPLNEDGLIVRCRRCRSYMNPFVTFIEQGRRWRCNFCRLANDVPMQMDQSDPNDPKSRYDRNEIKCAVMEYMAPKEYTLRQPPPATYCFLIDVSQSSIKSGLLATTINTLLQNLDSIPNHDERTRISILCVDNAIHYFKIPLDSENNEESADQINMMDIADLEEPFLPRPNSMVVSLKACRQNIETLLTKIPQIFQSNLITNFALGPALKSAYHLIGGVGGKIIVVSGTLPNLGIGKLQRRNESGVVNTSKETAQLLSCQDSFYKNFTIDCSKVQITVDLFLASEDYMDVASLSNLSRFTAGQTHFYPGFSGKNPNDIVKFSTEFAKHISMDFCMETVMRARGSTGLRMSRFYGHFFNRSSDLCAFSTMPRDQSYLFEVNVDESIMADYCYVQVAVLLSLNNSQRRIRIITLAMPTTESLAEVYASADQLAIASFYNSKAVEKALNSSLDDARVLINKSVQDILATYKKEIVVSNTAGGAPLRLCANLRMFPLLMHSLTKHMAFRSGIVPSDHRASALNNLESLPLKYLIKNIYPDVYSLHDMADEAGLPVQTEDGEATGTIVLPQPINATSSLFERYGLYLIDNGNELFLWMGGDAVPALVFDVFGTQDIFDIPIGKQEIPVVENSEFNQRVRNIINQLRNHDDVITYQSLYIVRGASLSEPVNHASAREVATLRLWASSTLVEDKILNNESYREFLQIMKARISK
The assay can be described thus: pull-down.

B1: His6-Hrr25p (enzyme, yeast, UniProt P29295 1-494, looked up)
chain: MDLRVGRKFRIGRKIGSGSFGDIYHGTNLISGEEVAIKLESIRSRHPQLDYESRVYRYLSGGVGIPFIRWFGREGEYNAMVIDLLGPSLEDLFNYCHRRFSFKTVIMLALQMFCRIQYIHGRSFIHRDIKPDNFLMGVGRRGSTVHVIDFGLSKKYRDFNTHRHIPYRENKSLTGTARYASVNTHLGIEQSRRDDLESLGYVLIYFCKGSLPWQGLKATTKKQKYDRIMEKKLNVSVETLCSGLPLEFQEYMAYCKNLKFDEKPDYLFLARLFKDLSIKLEYHNDHLFDWTMLRYTKAMVEKQRDLLIEKGDLNANSNAASASNSTDNKSETFNKIKLLAMKKFPTHFHYYKNEDKHNPSPEEIKQQTILNNNAASSLPEELLNALDKGMENLRQQQPQQQVQSSQPQPQPQQLQQQPNGQRPNYYPEPLLQQQQRDSQEQQQQVPMATTRATQYPPQINSNNFNTNQASVPPQMRSNPQQPPQDKPAGQSIWL
By Kd is commonly meant the equilibrium constant for the complex coming apart. B1 gave a Kd with GST-Sec23p of 43 nM.

B2: GST-Sec23p S742D (natural protein, yeast)
chain: DFETNEDINGVRFTWNVFPSTRSDANSNVVPVGCLYTPLKEYDELNVAPYNPVVCSGPHCKSILNPYCVIDPRNSSWSCPICNSRNHLPPQYTNLSQENMPLELQSTTIEYITNKPVTVPPIFFFVVDLTSETENLDSLKESIITSLSLLPPNALIGLITYGNVVQLHDLSSETIDRCNVFRGDREYQLEALTEMLTGQKPTGPGGAASHLPNAMNKVTPFSLNRFFLPLEQVEFKLNQLLENLSPDQWSVPAGHRPLRATGSALNIASLLLQGCYKNIPARIILFASGPGTVAPGLIVNSELKDPLRSHHDIDSDHAQHYKKACKFYNQIAQRVAANGHTVDIFAGCYDQIGMSEMKQLTDSTGGVLLLTDAFSTAIFKQSYLRLFAKDEEGYLKMAFNGNMAVKTSKDLKVQGLIGHASAVKKTDANNISESEIGIGATSTWKMASLSPYHSYAIFFEIANTAANSNPMMSAPGSADRPHLAYTQFITTYQHSSGTNRIRVTTVANQLLPFGTPAIAASFDQEAAAVLMARIAVHKAETDDGADVIRWLDRTLIKLCQKYADYNKDDPQSFRLAPNFSLYPQFTYYLRRSQFLSVFNNSPDETAFYRHIFTREDTTNSLIMIQPTLTSFSMEDDPQPVLLDSISVKPNTILLLDTFFFILIYHGEQIAQWRKAGYQDDPQYADFKALLEEPKLEAAELLVDRFPLPRFIDTEAGGSQARFLLSKLNPSDNYQDMARGGDTIVLTDDVSLQNFMTHLQQVAVSGQA
Turning to B2, the binding result with His6-Sec24p is “binds”.

B3: GST-Sec23p S742D/T747E (natural protein, yeast)
chain: DFETNEDINGVRFTWNVFPSTRSDANSNVVPVGCLYTPLKEYDELNVAPYNPVVCSGPHCKSILNPYCVIDPRNSSWSCPICNSRNHLPPQYTNLSQENMPLELQSTTIEYITNKPVTVPPIFFFVVDLTSETENLDSLKESIITSLSLLPPNALIGLITYGNVVQLHDLSSETIDRCNVFRGDREYQLEALTEMLTGQKPTGPGGAASHLPNAMNKVTPFSLNRFFLPLEQVEFKLNQLLENLSPDQWSVPAGHRPLRATGSALNIASLLLQGCYKNIPARIILFASGPGTVAPGLIVNSELKDPLRSHHDIDSDHAQHYKKACKFYNQIAQRVAANGHTVDIFAGCYDQIGMSEMKQLTDSTGGVLLLTDAFSTAIFKQSYLRLFAKDEEGYLKMAFNGNMAVKTSKDLKVQGLIGHASAVKKTDANNISESEIGIGATSTWKMASLSPYHSYAIFFEIANTAANSNPMMSAPGSADRPHLAYTQFITTYQHSSGTNRIRVTTVANQLLPFGTPAIAASFDQEAAAVLMARIAVHKAETDDGADVIRWLDRTLIKLCQKYADYNKDDPQSFRLAPNFSLYPQFTYYLRRSQFLSVFNNSPDETAFYRHIFTREDTTNSLIMIQPTLTSFSMEDDPQPVLLDSISVKPNTILLLDTFFFILIYHGEQIAQWRKAGYQDDPQYADFKALLEEPKLEAAELLVDRFPLPRFIDTEAGGSQARFLLSKLNPSDNYQDMARGGDTIVLEDDVSLQNFMTHLQQVAVSGQA
Consider B3, for which the binding result in the assay with His6-Sec24p was “binds”.

B4: GST-Sec23p T747E (natural protein, yeast)
chain: DFETNEDINGVRFTWNVFPSTRSDANSNVVPVGCLYTPLKEYDELNVAPYNPVVCSGPHCKSILNPYCVIDPRNSSWSCPICNSRNHLPPQYTNLSQENMPLELQSTTIEYITNKPVTVPPIFFFVVDLTSETENLDSLKESIITSLSLLPPNALIGLITYGNVVQLHDLSSETIDRCNVFRGDREYQLEALTEMLTGQKPTGPGGAASHLPNAMNKVTPFSLNRFFLPLEQVEFKLNQLLENLSPDQWSVPAGHRPLRATGSALNIASLLLQGCYKNIPARIILFASGPGTVAPGLIVNSELKDPLRSHHDIDSDHAQHYKKACKFYNQIAQRVAANGHTVDIFAGCYDQIGMSEMKQLTDSTGGVLLLTDAFSTAIFKQSYLRLFAKDEEGYLKMAFNGNMAVKTSKDLKVQGLIGHASAVKKTDANNISESEIGIGATSTWKMASLSPYHSYAIFFEIANTAANSNPMMSAPGSADRPHLAYTQFITTYQHSSGTNRIRVTTVANQLLPFGTPAIAASFDQEAAAVLMARIAVHKAETDDGADVIRWLDRTLIKLCQKYADYNKDDPQSFRLAPNFSLYPQFTYYLRRSQFLSVFNNSPDETAFYRHIFTREDTTNSLIMIQPTLTSFSMEDDPQPVLLDSISVKPNTILLLDTFFFILIYHGEQIAQWRKAGYQDDPQYADFKALLEEPKLEAAELLVDRFPLPRFIDTEAGGSQARFLLSKLNPSDNYQDMARGGSTIVLEDDVSLQNFMTHLQQVAVSGQA
As for B4, the binding result with His6-Sec24p was “binds”.

Consider B5, for which, in the assay with His6-Sec24p, the binding result is listed as “binds”.
